The EC50 (read off the curve) is the midpoint of the concentration-response curve.

The target of assay [1] is T1, human FcRH5c (full length human FcRH5) (human, UniProt Q96RD9 16-977).
T1 construct: Used on transfected SVT2, 293, EJM and OPM2 cells and endogenously on MOLP-2 cells and CD19+ B cells; also called IRTA2c; huFcRH5
T1 sequence: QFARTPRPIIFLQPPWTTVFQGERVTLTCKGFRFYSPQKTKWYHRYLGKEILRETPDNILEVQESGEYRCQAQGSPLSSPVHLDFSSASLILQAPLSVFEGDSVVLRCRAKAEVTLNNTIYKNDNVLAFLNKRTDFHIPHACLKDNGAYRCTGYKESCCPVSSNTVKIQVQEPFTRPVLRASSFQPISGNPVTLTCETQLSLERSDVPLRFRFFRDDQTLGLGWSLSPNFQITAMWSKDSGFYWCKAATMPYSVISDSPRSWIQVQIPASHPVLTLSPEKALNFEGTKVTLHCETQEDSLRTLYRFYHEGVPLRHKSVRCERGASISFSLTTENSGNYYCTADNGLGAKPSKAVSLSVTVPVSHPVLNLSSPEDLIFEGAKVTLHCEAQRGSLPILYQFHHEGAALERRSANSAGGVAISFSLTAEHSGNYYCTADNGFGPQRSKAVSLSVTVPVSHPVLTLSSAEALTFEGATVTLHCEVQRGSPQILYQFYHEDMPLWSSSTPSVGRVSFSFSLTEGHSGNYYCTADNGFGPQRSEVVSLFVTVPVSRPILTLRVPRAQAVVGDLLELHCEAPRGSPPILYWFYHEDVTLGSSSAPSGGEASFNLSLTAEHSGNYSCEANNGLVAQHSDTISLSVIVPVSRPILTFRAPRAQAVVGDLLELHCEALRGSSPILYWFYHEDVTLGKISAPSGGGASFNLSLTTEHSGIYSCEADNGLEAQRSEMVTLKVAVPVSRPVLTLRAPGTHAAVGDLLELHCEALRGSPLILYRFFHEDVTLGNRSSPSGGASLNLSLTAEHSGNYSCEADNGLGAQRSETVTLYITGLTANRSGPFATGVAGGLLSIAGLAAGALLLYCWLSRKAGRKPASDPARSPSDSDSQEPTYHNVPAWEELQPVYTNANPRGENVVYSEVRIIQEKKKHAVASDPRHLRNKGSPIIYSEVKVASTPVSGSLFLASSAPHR
Put plainly: FACS, EJM cells transfected with human FcRH5, anti-mouse Alexa-647; negative control. A general note: In flow cytometry, cells or beads pass a laser one at a time.

In assay [2] the target is T1, human FcRH5c (full length human FcRH5). Put plainly: FACS, OPM2 cells transfected with human FcRH5, anti-mouse Alexa-647; negative control.
The target is the same in assay [3]. Put plainly: FACS, MOLP2 cells (endogenous FcRH5), 4 ug/ml. The procedure:
(§1) To test binding to endogenously FcRH5 expressing cancer cells or FcRH5 transfected cancer cells, cells were lifted using EDTA/PBS. 1×10⁵ cells were suspended in 100 ul and incubated […] with primary antibodies (1 volume of non-IgG quantitated subclone supernatant, 4 ug/ml IgG quantified subclone supernatant or […] purified monoclonal antibodies). Cells were washed twice with FACS buffer (PBS 1% BSA 2 mM EDTA) and incubated with 1:1000 dilution of goat anti-mouse secondary labeled with PE or 1:100 of goat anti-mouse APC. Cells were washed twice with FACS buffer and Flow cytometry analysis was done on a FACSCalibur. Direct […] of antibodies was done according to manufacturer's protocol (Invitrogen), when indicated. To analyze binding to NK or B cells, 1 million human PBMC were incubated with 4 ug/ml IgG quantified subclone supernatants for 60 min, washed and incubated with 1:100 dilution of goat anti-mouse secondary labeled with APC. Cells were then washed again twice and stained using anti-CD56 (PE; BD Biosciences #555516) and anti-CD19 (PE; BD Biosciences #340364) prior flow cytometry and analysis of binding to human CD56+ and CD19+ cells.

Assay [4] has as its target T2, soluble FcRH5a isoform with C-terminal HIS-expression tag (human, UniProt Q96RD9-3 16-759).
T2 construct: mature; also called IRTA2a
T2 sequence (looked up): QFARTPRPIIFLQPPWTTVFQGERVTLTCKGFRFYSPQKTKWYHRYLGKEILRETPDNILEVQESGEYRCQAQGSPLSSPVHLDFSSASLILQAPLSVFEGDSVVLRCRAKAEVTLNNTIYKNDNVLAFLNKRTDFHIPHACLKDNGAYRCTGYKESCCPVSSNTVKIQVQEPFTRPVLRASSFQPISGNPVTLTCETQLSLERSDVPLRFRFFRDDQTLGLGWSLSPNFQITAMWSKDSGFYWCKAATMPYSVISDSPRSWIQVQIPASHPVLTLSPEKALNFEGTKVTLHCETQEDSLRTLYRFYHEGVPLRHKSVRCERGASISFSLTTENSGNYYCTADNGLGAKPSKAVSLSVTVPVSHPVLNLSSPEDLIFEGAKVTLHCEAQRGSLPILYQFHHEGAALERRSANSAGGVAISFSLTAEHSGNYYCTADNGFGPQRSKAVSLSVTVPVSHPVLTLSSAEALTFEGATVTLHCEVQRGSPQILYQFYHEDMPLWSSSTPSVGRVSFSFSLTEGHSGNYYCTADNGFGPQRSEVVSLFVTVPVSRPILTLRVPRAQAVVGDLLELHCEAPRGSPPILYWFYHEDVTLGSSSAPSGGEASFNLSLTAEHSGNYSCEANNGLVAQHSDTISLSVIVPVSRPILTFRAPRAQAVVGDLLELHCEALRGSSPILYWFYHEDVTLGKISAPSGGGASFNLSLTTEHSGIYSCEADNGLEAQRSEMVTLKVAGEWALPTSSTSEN
Put plainly: ELISA, His-tagged soluble FcRH5a captured by anti-His, anti-mouse HRP, OD 650. On the procedure:
For this, 293 cells were transfected to express the soluble isoform with C-terminal HIS-expression tag. Expression of FcRH5a protein was confirmed with Western blot analysis using anti-HIS antibody. A 65 kD band was detected in conditioned media from FcRH5a but not vector transfected cells (not shown). For the ELISA, plates were coated with anti-HIS capture antibody and incubated 1 hour with 1:10 diluted conditioned media including the HIS-tagged soluble FcRH5a isoform. The E11 monoclonal antibodies were used for detection in 1-0.001 ug/ml concentration, incubated for 1 hour followed by incubation with goat anti-mouse HRP antibody and finally with TMB-substrate.
Background: An ELISA detects its analyte on a solid surface through an enzyme-linked reagent.

In assay [5] the target is T1, human FcRH5c (full length human FcRH5). Put plainly: FACS, 293 cells with wild type FcRH5c, supernatants 2.5 ug/ml, anti-mouse PE. The procedure: Two separate tests were designed to address dependency of binding on the presence of membrane proximal Ig-domain 9 (E11). First a truncated human FcRH5c mutant was generated that lacks Ig-domains 6-9 (amino acids 464-850 of SEQ ID NO:1) including the expected binding site for the antibodies derived from E11 immunization. This construct with N-terminal gD-tag was expressed in 293 cells and subjected to 2.5 ug/ml subclone supernatants followed by PE labeled goat anti-mouse secondary antibody (1:1000 dilution). None of the tested subclones bound to 293 cells that express the truncated human FcRH5c (FIG. 4A). In contrast binding was detected to 293 cells that express wild type human FcRH5c. Binding of gD or non-isoform selective antibody clone (10A8) was not altered by the mutation.

The target in assay [6] is T3, FcRH3 endogenously expressed on human NK cells (CD56+ cells of PBMC) (human, UniProt Q96P31 18-734).
T3 construct: whole, on cells; FcRH1 was also detected on CD56+ cells; also called endogenously expressed FcRH3
T3 sequence (looked up): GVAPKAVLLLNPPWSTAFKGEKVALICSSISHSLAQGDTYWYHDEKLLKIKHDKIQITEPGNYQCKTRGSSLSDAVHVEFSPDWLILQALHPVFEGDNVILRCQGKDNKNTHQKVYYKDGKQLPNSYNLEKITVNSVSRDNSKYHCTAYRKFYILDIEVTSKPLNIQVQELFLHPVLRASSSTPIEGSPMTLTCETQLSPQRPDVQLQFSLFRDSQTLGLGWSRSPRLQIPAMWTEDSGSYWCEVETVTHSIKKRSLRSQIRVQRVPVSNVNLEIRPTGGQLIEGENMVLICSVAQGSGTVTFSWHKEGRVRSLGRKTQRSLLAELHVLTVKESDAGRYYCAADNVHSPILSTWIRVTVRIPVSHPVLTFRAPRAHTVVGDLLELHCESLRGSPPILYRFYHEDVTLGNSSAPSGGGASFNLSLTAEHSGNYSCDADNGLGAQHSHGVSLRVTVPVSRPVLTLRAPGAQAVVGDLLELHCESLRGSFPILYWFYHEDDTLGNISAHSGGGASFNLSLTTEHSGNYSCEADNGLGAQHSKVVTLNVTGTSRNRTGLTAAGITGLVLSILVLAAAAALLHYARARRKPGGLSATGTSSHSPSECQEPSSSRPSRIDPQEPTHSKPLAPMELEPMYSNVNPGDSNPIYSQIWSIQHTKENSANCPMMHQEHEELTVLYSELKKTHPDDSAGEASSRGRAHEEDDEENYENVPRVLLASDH
The experiment in a line: FACS, CD56+ NK cells of human PBMC, anti-mouse APC. The procedure:
as §1
Since the overall signal in the FcRH3-expressing SVT2 cells was low, further testing was done using PBMCs from healthy donors. […]

In assay [7] the target is T1, human FcRH5c (full length human FcRH5). The experiment in a line: FACS, APC-labelled antibodies on SVT2 cells with full-length human FcRH5.
Assay [8] shares this target. The experiment in a line: FACS, MOLP2 cells (endogenous FcRH5), 4 ug/ml; legend printed under FIG. 3E. On the procedure:
as §1

In the case of mIgG (antibody), the values for the Mean:FL4-H in assay [1] and in assay [2] were 10.3 and 6.43, respectively.

B1: 3G7.1.5 (antibody, IgG2a, V domains shown)
VH: EVQLQQSGPELVKPGASVKMSCKASGYTFTDYYMKWVRQNHGKRLEWIGDINPYNGDTFYNQKFKDKATLTVDKSSSTAYMQFNSLTSEDSAVYYCARGLYFFHYWGQGTTLTVSSASTKGPSVFPLAP
VL: DIVLIQSPATLSVTLGGSVSLSCRASQSISNNLHWYQQKSHESPRLLIKFASQSISGIPSRFRGSGSGTDFTLTINSVETEDFGIYFCQQSNNWPQYTFGGGTKLELKRTVAA
notes: parent 3G7 and subclone 3G7.1 treated as the same antibody; also called 3G7.1.mIgG2a
As for B1, the binding result in assay [3] is on record as “binds”.

B2: 2H7.3 (antibody, IgG2b, V domains shown)
VH: EVQLQQSGPELWKPGASVKMSCKASGYTFTDYYMKWVKQTHGKSLEWIGDINPNNGETFYSQKFKGKATLTVDKSSTTAYMQLNSLTSEDSAVYYCARGLYRFDYWGQGTTLTVSSASTKGPSVFPLAP
VL: EIVLTQSPATLSVTPGDSVSLSCRASQNIRNNLHWYQQKSHESPRLLIKFTSQSISGIPSRFTGSGSGTDFTLSINSVETEDFGMYFCQQSNNWPQYTFGGGTKLEIKRTVAA
notes: Parent 2H7, subclone 2H7.3 and purified antibody treated as one; also called 2H7.3.mIgG2b
Take B2: the binding result in assay [4] and in assay [5] was “binds” throughout.

B3: 5A10.1.3 (antibody, IgG2b, V domains shown)
VH: EVQLQQSGPELWKPGASVKMSCKASGYTFTDYYMKWVKQSHGKSLEWIGDINPNNGETFYNQKFKGKATLTVDKSTSTAYMELNSLTTEDSAVYYCARGLYRFDYWGQGTTLTVSSAASTKGPSVFPLAP
VL: DIVLTQSPANLSVIPGDSVSLSCRASQNIRNNLHWYQQKSQESPRLLIKFASQSMSGTPSRFTGSGSGTDFTLTINTVETEDFGMYFCQQSNNWPQYTFGGGTKLEIKRTVAA
notes: parent 5A10 and subclone 5A10.1 treated as the same antibody; also called 5A10.1.mIgG2b
For the molecule B3, the concentration for a half-maximal effect (EC50 (read off the curve)) in assay [4] is roughly 0.02 ng/mL.

B4: 1G7.2 (antibody, IgG1, V domains shown)
VH: EVQLQESGPGLVQPSQSLSITCTVSGFSLTRFGVHWVRQSPGKGLEWLGVIWRGGSTDYNAAFMSRLTITKDNSKSQVFFKLNSLKVDDTAIYYCSNHYYGSSDYALDNWGQGTSVTVSSASTKGPSVFPLAP
VL: DIVMTQSHKIMSTSVGDRVSITCKASQDVSNIVVWFQQKPGQSPNLLIYSASYRYTGVPDRFTGSGSGTDFTFTISSVQAEDLAVYYCQQHYSSPYTFGGGTKLEIKRTVAA
notes: Parent 1G7, subclone 1G7.2 and purified 1G7.2.mIgG1 treated as one antibody; also called 1G7.2.mIgG1
For the molecule B4, the binding result in assay [6] is given as “no binding (tested: 4 ug/ml)”; in assay [4], “no binding”; in assay [7], “binds”.

B5: 5F1.1.5 (antibody, IgG2a, V domains shown)
VH: QVQLQQSGADLVRPGTSVKVSCKASGYAFTNYLIEWVKQRPGQGLEWIGVINPGSGGTNYNEKFKGKATLTADKSSSTAYMQLSSLTSDDSAVYFCARTRNYGYVIDYWGQGTTLTVSSASTKGPSVFPLAP
VL: QAVVTQESALTTSPGETVTLTCRSSTGTVTTSNFANWVQEKPDHLFTGLIGGTSNRAPGVPARFSGSLIGDKAALTITGAQTEDEAIYFCVLWCSNLWVFGGGTKLTVLGQPKAA
notes: parent 5F1 and subclone 5F1.1 treated as the same antibody; also called 5F1.1.mIgG2a
Regarding B5, in assay [8], the binding result is listed as “binds”.
